Measurements taken from patent publication US20240016923A1.

Assays:
[1] = target: secreted E2 ectodomain (sE2), HCV E2 residues 384-661 (Hepatitis C virus, isolate H77C) (UniProt P27958); experiment: SPR (Biacore T200); sE2 amine-coupled to a CM5 chip, CD81-LEL injected; 1:1 model
[2] = target: secreted E2 ectodomain (sE2), HCV E2 residues 384-661 (Hepatitis C virus, isolate H77C) (UniProt P27958); experiment: SPR (Biacore T200); sE2 amine-coupled to a CM5 chip, CD81-LEL injected; 1:1 model, Kd = koff/kon

B1: CD81 large extracellular loop (CD81-LEL) (receptor, UniProt P60033 113-201, looked up, not shown: small tags and cut ends)
chain: FVNKDQIAKDVKQFYDQALQQAVVDDDANNAKAVVKTFHETLDCCGSSTLTALTTSVLKNNLCPSGSNIISNLFKEDCHQKIDDLFSGK
koff [1]: 0.00045 s⁻¹
kon [1]: 65000 M⁻¹ s⁻¹
Kd [2]: 7 nM
